According to US10976314B2, “Device, non-transitory computer-readable storage medium, and method for determining type of target peptide” (SYSMEX CORPORATION, priority 2014, dated 2021):
Like-named read-outs stand apart in the source and are kept apart here. Blank lines part the entries; values can stand above or below the molecule they belong to. Peptide text beside a SMILES is read from it.

What was measured:
[1] = cited from earlier work; for Isoelectric point: Table 5; for Isoelectric point pI: Table 1
[2] = target: human serum albumin (HSA) (Homo sapiens, UniProt P02768); conditions: for b value of Equation (I) (dissociation mode: b<0.241 single, b≥0.241 multiple) / Δλ (maximum layer thickness change amount, second information): peptide concentration per Table 5

b value of Equation (I) (dissociation mode: b<0.241 single, b≥0.241 multiple) ([2]; HSA sensor chip): 0 | Δλ (maximum layer thickness change amount, second information) ([2]; HSA sensor chip): 0.043 nm
Molecule: ELN 11mer: the 548 to 558th fragments of the amino acid sequence of elastin; SEQ ID NO: 20, GVPGLGVGAGV (listed as Homo sapiens)
Isoelectric point [1]: 5.5 | Koff (dissociation rate constant, first information) ([2]; pH 6.9): 0.00016 s⁻¹

Molecule: fibrinogen α (DEAGSEADHEGTHSTKRGHAKSRPV; listed as Homo sapiens)
Isoelectric point pI [1]: 6.3

Molecule: glucagon
Isoelectric point pI [1]: 6.8

b value of Equation (I) (dissociation mode: b<0.241 single, b≥0.241 multiple) ([2]; HSA sensor chip): 0.756 | Δλ (maximum layer thickness change amount, second information) ([2]; HSA sensor chip): 0.061 nm
Molecule: IS 13mer: the 237 to 249th fragments of the amino acid sequence of HSA; SEQ ID NO: 21, AWAVARLSQRFPK (listed as Homo sapiens)
Isoelectric point [1]: 12 | Koff (dissociation rate constant, first information) ([2]; pH 6.9): 0.01708 s⁻¹

b value of Equation (I) (dissociation mode: b<0.241 single, b≥0.241 multiple) ([2]; HSA sensor chip): 1.093 | Δλ (maximum layer thickness change amount, second information) ([2]; HSA sensor chip): 0.082 nm
Molecule: kininogen (HNLGHGHKHERDQGHGHQR; listed as Homo sapiens)
Isoelectric point pI [1]: 8.8 | Isoelectric point [1]: 8.8 | Koff (dissociation rate constant, first information) ([2]; pH 6.9): 0.00493 s⁻¹

Molecule: brain natriuretic peptide [BNP]
Isoelectric point pI [1]: 11

Molecule: NC(N)=NCCC[C@H](NC(=O)[C@H](Cc1ccccc1)NC(=O)[C@@H]1CCCN1C(=O)[C@H](CO)NC(=O)[C@H](Cc1ccccc1)NC(=O)CNC(=O)[C@@H]1CCCN1C(=O)[C@@H]1CCCN1C(=O)[C@@H](N)CCCN=C(N)N)C(=O)O [Bradykinin] (H-RPPGFSPFR-OH)
Koff (dissociation rate constant, first information) ([2]; pH 6.9): 0.01721 s⁻¹

Molecule: ACTH15: SEQ ID NO: 11, YSMEHFRWGKPVGKK (listed as Homo sapiens)
Isoelectric point pI [1]: 10 | Isoelectric point [1]: 10 | Koff (dissociation rate constant, first information) ([2]; pH 6.9): 0.01147 s⁻¹

Molecule: ACTH partial peptide at the 1-24 positions [ACTH24]
Isoelectric point pI [1]: 10.6

dissociation mode (third information) ([2]; HSA sensor chip, peptide map FIG. 6, peptide 2 μM): multiple dissociation mode
Molecule: ACTH partial peptide at the 1-39 positions (SYSMEHFRWGKPVGKKRRPVKVYPNAGENESAEAFPLEF; listed as Homo sapiens) [ACTH39]
Isoelectric point pI [1]: 9.3

Molecule: ACTH partial peptide at the 1-41 positions (GPSYSMEHFRWGKPVGKKRRPVKVYPNGAEDESAEAFPLEF; listed as Homo sapiens) [ACTH41]
Isoelectric point pI [1]: 8.3

Molecule: Amyloid β40 peptide [AB40]
Isoelectric point pI [1]: 5.3 | Isoelectric point [1]: 5.3

Molecule: dynorphin A (YGGFLRRIRPKLK; listed as Homo sapiens)
Isoelectric point pI [1]: 11.7 | Isoelectric point [1]: 11.7 | Koff (dissociation rate constant, first information) ([2]; HSA sensor chip, peptide concentration during measurement per Table 5 (1-1000 μM), 0.1 M sodium phosphate buffer pH 6.9): 0.00617 s⁻¹

b value of Equation (I) (dissociation mode: b<0.241 single, b≥0.241 multiple) ([2]; HSA sensor chip): 0.344 | Δλ (maximum layer thickness change amount, second information) ([2]; HSA sensor chip): 0.027 nm
Molecule: (His) 3: HHH
Isoelectric point [1]: 7 | Koff (dissociation rate constant, first information) ([2]; pH 6.9): 0.00257 s⁻¹

Molecule: amyloid β42 peptide [AB42]
Isoelectric point pI [1]: 5.3 | Isoelectric point [1]: 5.3

Molecule: histidine eicosa peptide (HHHHHHHHHHHHHHHHHHHH; Synthetic His eicosapeptide) [(His) 20]
Isoelectric point pI [1]: 7.6

b value of Equation (I) (dissociation mode: b<0.241 single, b≥0.241 multiple) ([2]; HSA sensor chip): 0.669 | Δλ (maximum layer thickness change amount, second information) ([2]; HSA sensor chip): 0.045 nm
Molecule: Lys-decapeptide (KKKKKKKKKK; Synthetic Lys decapeptide) [(Lys) 10]
Isoelectric point [1]: 11 | Koff (dissociation rate constant, first information) ([2]; pH 6.9): 0.0002 s⁻¹

Molecule: His-decapeptide (HHHHHHHHHH; Synthetic His decapeptide) [(His) 10]
Isoelectric point [1]: 7.4 | Koff (dissociation rate constant, first information) ([2]; pH 6.9): 0.00073 s⁻¹

Molecule: inter-α-trypsin inhibitor heavy chain 4 (GESRNRNVHSGSTFFKYYLQGAKIPKPEASFS; listed as Homo sapiens) [ITIH4]
Isoelectric point pI [1]: 9.8

Molecule: arginine decapeptide [(Arg) 10]
Isoelectric point pI [1]: 13

b value of Equation (I) (dissociation mode: b<0.241 single, b≥0.241 multiple) ([2]; HSA sensor chip): 0.278 | Δλ (maximum layer thickness change amount, second information) ([2]; HSA sensor chip): 0.12 nm
B1: Lysozyme (protein, listed as Homo sapiens)
chain: KVYGRCELAAAMKRLGLDNFRGYSLGNWVCAAKFESNFNTHATNRNTDGSTDYGILQINSRWWCNDGRTPGSRNLCNIPCSALLSSDTIASVNCAKKIVSDGNGMNAWVAWRKRCKGTDVNAWTRGCRL
Isoelectric point [1]: 9.4 | Koff (dissociation rate constant, first information) ([2]; pH 6.9): 0.0066 s⁻¹
